Laboratory results: the supplement of paper PMC10567573

B1: KRT71 (parent)
chain: FGSRSLYSLGGVRSLNVASGSGKS

Variants of: B1
Experiment: protein stability index of a GFP-peptide fusion (GPS, HEK-293T) (PSI 1-6); higher = more stable
Details: c terminus: a fixed tail appended
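Further: lentivirally expressed fusions sorted by FACS into six bins by GFP to DsRed ratio, PSI derived from sequencing read proportions per bin multiplied by bin number.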

Variant | protein stability index
FGSRSLYSLGGVRSLNIASGSGKS [V17I] | 1.94
FGSRSLYSLGGVRSLNWASGSGKS [V17W] | 1.86
FGSRSLYSLGGVRSLNFASGSGKS [V17F] | 2.17
FGSRSLYSLGGVRSLNAASGSGKS [V17A] | 1.91
FGSRSLYSLGGVRSLNRASGSGKS [V17R] | 1.7
FGSRSLYSLGGVRSLNCASGSGKS [V17C] | 2.31
FGSRSLYSLGGVRSLNYASGSGKS [V17Y] | 2.07
FGSRSLYSLGGVRSLNKASGSGKS [V17K] | 2.01
FGSRSLYSLGGVRSLNGASGSGKS [V17G] | 1.91
FGSRSLYSLGGVRSLNPASGSGKS [V17P] | 1.92
FGSRSLYSLGGVRSLNHASGSGKS [V17H] | 1.97
FGSRSLYSLGGVRSLNSASGSGKS [V17S] | 1.92
FGSRSLYSLGGVRSLNQASGSGKS [V17Q] | 1.97
FGSRSLYSLGGVRSLNNASGSGKS [V17N] | 1.83
FGSRSLYSLGGVRSLNTASGSGKS [V17T] | 2.52
FGSRSLYSLGGVRSLNDASGSGKS [V17D] | 2.13
FGSRSLYSLGGVRSLNMASGSGKS [V17M] | 2.38
FGSRSLYSLGGVRSLNLASGSGKS [V17L] | 2.5
FGSRSLYSLGGVRSLNEASGSGKS [V17E] | 1.59
FGSRSLYSLGGVRSLNVQSGSGKS [A18Q] | 1.78
FGSRSLYSLGGVRSLNVLSGSGKS [A18L] | 2.27
FGSRSLYSLGGVRSLNVGSGSGKS [A18G] | 2.1
FGSRSLYSLGGVRSLNVYSGSGKS [A18Y] | 2.94
FGSRSLYSLGGVRSLNVPSGSGKS [A18P] | 2.2

Variant | protein stability index
FGSRSLYSLGGVRSLNVVSGSGKS [A18V] | 1.88
FGSRSLYSLGGVRSLNVNSGSGKS [A18N] | 2.81
FGSRSLYSLGGVRSLNVESGSGKS [A18E] | 2.11
FGSRSLYSLGGVRSLNVFSGSGKS [A18F] | 1.9
FGSRSLYSLGGVRSLNVDSGSGKS [A18D] | 1.62
FGSRSLYSLGGVRSLNVCSGSGKS [A18C] | 1.73
FGSRSLYSLGGVRSLNVRSGSGKS [A18R] | 2.46
FGSRSLYSLGGVRSLNVWSGSGKS [A18W] | 2.87
FGSRSLYSLGGVRSLNVHSGSGKS [A18H] | 2.39
FGSRSLYSLGGVRSLNVSSGSGKS [A18S] | 2.65
FGSRSLYSLGGVRSLNVISGSGKS [A18I] | 1.39
FGSRSLYSLGGVRSLNVMSGSGKS [A18M] | 2.95
FGSRSLYSLGGVRSLNVTSGSGKS [A18T] | 1.62
FGSRSLYSLGGVRSLNVKSGSGKS [A18K] | 2.63
FGSRSLYSLGGVRSLYVASGSGKS [N16Y] | 2.16
FGSRSLYSLGGVRSLAVASGSGKS [N16A] | 1.93
FGSRSLYSLGGVRSLQVASGSGKS [N16Q] | 2.44
FGSRSLYSLGGVRSLPVASGSGKS [N16P] | 2.04
FGSRSLYSLGGVRSLIVASGSGKS [N16I] | 1.29
FGSRSLYSLGGVRSLMVASGSGKS [N16M] | 1.83
FGSRSLYSLGGVRSLTVASGSGKS [N16T] | 1.47
FGSRSLYSLGGVRSLRVASGSGKS [N16R] | 2.07
FGSRSLYSLGGVRSLVVASGSGKS [N16V] | 2.06
FGSRSLYSLGGVRSLWVASGSGKS [N16W] | 2.95

Variant | protein stability index
FGSRSLYSLGGVRSLHVASGSGKS [N16H] | 2.21
FGSRSLYSLGGVRSLDVASGSGKS [N16D] | 2.38
FGSRSLYSLGGVRSLEVASGSGKS [N16E] | 1.73
FGSRSLYSLGGVRSLSVASGSGKS [N16S] | 2.15
FGSRSLYSLGGVRSLFVASGSGKS [N16F] | 2.22
FGSRSLYSLGGVRSLKVASGSGKS [N16K] | 2.02
FGSRSLYSLGGVRSLLVASGSGKS [N16L] | 1.73
FGSRSLYSLGGVRSLCVASGSGKS [N16C] | 1.97
FGSRSLYSLGGVRSLGVASGSGKS [N16G] | 1.1
FGSRSLYSLGGVRSLNVASGNGKS [S21N] | 1.69
FGSRSLYSLGGVRSLNVASGFGKS [S21F] | 1.73
FGSRSLYSLGGVRSLNVASGVGKS [S21V] | 1.41
FGSRSLYSLGGVRSLNVASGPGKS [S21P] | 2.07
FGSRSLYSLGGVRSLNVASGAGKS [S21A] | 1.83
FGSRSLYSLGGVRSLNVASGTGKS [S21T] | 1.93
FGSRSLYSLGGVRSLNVASGCGKS [S21C] | 1.49
FGSRSLYSLGGVRSLNVASGRGKS [S21R] | 2.5
FGSRSLYSLGGVRSLNVASGMGKS [S21M] | 1.87
FGSRSLYSLGGVRSLNVASGHGKS [S21H] | 2.11
FGSRSLYSLGGVRSLNVASGGGKS [S21G] | 1.91
FGSRSLYSLGGVRSLNVASGDGKS [S21D] | 2.04
FGSRSLYSLGGVRSLNVASGQGKS [S21Q] | 2.29
FGSRSLYSLGGVRSLNVASGWGKS [S21W] | 1.24
FGSRSLYSLGGVRSLNVASGLGKS [S21L] | 2.11

Variant | protein stability index
FGSRSLYSLGGVRSLNVASGEGKS [S21E] | 1.92
FGSRSLYSLGGVRSLNVASGIGKS [S21I] | 2.18
FGSRSLYSLGGVRSLNVASGKGKS [S21K] | 2.06
FGSRSLYSLGGVRSLNVASGSGAS [K23A] | 1.47
FGSRSLYSLGGVRSLNVASGSGLS [K23L] | 1.74
FGSRSLYSLGGVRSLNVASGSGIS [K23I] | 2.12
FGSRSLYSLGGVRSLNVASGSGVS [K23V] | 1.88
FGSRSLYSLGGVRSLNVASGSGGS [K23G] | 2.09
FGSRSLYSLGGVRSLNVASGSGES [K23E] | 2.03
FGSRSLYSLGGVRSLNVASGSGPS [K23P] | 2.15
FGSRSLYSLGGVRSLNVASGSGTS [K23T] | 1.56
FGSRSLYSLGGVRSLNVASGSGDS [K23D] | 1.92
FGSRSLYSLGGVRSLNVASGSGNS [K23N] | 2.09
FGSRSLYSLGGVRSLNVASGSGQS [K23Q] | 1.77
FGSRSLYSLGGVRSLNVASGSGFS [K23F] | 2.47
FGSRSLYSLGGVRSLNVASGSGSS [K23S] | 1.9
FGSRSLYSLGGVRSLNVASGSGCS [K23C] | 1.97
FGSRSLYSLGGVRSLNVASGSGRS [K23R] | 2.35
FGSRSLYSLGGVRSLNVASGSGWS [K23W] | 2.56
FGSRSLYSLGGVRSLNVASGSGYS [K23Y] | 1.69
FGSRSLYSLGGVRSLNVASGSGMS [K23M] | 1.49
FGSRSLYSLGGVRSLNVASGSGHS [K23H] | 2.03
